Publication PMC10647799

What was measured:
[1] = molecular target: Asterias forbesii ferritin (AfFer) (Asterias forbesii); experiment: crystal structure; hanging drop vapour diffusion, 20 °C, 12.0 µM ferritin in 5.0 mM Tris-HCl; crystals with body-centered tetragonal (BCT) lattice; subunits in the 24-mer cage and cage to cage contacts
[2] = molecular target: Asterias forbesii ferritin (AfFer) (Asterias forbesii); experiment: native gel or EMSA; native-PAGE and SDS-PAGE of purified AfFer; subunits to the 24-mer cage

stoichiometry N [1]: 24
stoichiometry N [2]: 24
Substance: Asterias forbesii ferritin (AfFer) (natural protein)
